Consider two compounds from paper PMC2880861 (New journal of chemistry = Nouveau journal de chimie, 2010).

Series [1] concerns the target soluble fibrin fragment DD(E). The series is described as follows: DD. To be noted: read-out: Ki, inhibition of binding of a fluorescent peptide to DD(E); TBS·Ca; DD(E) 1.5 μM, Fl 1 μM; uncertainties estimated at ±10%.
For series [2] the following is noted: rat, tissue homogenate.
The next series can be described thus: in vitro. To be noted: male, Sprague Dawley, rat, tissue homogenate.
Another series concerns the target T1, gelled human fibrin (Homo sapiens, UniProt P02671+P02675+P02679).
T1 sequence (P02671 20-644 isoform P02671-2 limits assumed): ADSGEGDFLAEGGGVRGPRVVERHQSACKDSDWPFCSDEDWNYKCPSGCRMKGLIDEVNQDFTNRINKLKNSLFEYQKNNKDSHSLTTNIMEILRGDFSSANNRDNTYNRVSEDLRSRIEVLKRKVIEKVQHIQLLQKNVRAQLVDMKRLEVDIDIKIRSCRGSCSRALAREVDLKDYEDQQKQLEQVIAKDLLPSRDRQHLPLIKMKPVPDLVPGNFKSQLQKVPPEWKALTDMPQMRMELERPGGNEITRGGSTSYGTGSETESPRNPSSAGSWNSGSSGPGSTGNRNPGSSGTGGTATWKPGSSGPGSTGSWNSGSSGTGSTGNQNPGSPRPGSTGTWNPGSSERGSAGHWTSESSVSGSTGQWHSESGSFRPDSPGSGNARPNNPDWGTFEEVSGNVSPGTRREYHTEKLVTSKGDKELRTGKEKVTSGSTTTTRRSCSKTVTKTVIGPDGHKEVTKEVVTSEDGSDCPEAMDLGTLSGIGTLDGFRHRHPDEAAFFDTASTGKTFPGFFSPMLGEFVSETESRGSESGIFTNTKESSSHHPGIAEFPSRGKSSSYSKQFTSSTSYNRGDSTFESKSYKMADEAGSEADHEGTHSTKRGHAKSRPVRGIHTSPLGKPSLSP
T1 sequence (P02675 45-491 limits assumed): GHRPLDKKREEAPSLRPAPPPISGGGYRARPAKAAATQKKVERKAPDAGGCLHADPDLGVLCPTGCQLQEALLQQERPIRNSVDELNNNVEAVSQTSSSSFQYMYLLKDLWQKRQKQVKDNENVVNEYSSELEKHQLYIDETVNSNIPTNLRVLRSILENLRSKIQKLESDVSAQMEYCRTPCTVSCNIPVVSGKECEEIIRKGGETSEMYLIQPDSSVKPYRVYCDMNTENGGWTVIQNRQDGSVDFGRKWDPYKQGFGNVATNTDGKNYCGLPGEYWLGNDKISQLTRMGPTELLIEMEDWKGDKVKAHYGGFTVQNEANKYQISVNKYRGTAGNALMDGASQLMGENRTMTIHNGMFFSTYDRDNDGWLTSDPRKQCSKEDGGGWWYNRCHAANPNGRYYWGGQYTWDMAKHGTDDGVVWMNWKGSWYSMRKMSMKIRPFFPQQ
T1 sequence (P02679 27-437 isoform P02679-2 limits assumed): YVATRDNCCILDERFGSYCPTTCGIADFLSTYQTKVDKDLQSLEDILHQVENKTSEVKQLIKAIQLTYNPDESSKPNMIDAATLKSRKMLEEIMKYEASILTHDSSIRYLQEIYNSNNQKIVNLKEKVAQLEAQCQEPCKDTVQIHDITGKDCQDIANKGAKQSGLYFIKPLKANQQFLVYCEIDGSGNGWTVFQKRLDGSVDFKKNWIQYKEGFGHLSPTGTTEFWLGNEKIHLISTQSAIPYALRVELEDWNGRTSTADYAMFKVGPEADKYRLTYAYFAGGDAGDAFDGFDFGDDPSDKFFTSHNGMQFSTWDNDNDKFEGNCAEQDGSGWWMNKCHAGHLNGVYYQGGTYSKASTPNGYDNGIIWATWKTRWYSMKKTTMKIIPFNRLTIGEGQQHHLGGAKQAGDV
The series is described as follows: Relaxivity / variable temperature NMRD in fibrin gel. Format: physicochemical.

For a further series, the target named is T2, human fibrinogen (Homo sapiens, UniProt P02671+P02675+P02679).
T2 sequence (P02671 20-629 limits assumed): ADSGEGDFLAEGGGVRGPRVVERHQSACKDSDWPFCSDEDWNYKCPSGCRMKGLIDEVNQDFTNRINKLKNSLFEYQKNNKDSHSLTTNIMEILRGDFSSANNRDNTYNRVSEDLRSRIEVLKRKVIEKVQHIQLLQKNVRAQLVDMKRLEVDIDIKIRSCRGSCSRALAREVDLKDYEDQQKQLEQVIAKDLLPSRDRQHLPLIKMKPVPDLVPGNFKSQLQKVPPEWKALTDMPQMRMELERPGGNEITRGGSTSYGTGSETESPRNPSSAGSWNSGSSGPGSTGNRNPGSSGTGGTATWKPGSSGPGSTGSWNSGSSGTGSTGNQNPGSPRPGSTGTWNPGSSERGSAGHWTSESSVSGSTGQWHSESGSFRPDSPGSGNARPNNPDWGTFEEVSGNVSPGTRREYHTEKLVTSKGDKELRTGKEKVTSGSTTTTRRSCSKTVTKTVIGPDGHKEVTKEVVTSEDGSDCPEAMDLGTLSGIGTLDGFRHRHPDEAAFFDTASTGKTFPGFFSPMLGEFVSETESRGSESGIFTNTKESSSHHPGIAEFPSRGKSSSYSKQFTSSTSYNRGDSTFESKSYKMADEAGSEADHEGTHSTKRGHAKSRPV
T2 sequence (P02675 31-491): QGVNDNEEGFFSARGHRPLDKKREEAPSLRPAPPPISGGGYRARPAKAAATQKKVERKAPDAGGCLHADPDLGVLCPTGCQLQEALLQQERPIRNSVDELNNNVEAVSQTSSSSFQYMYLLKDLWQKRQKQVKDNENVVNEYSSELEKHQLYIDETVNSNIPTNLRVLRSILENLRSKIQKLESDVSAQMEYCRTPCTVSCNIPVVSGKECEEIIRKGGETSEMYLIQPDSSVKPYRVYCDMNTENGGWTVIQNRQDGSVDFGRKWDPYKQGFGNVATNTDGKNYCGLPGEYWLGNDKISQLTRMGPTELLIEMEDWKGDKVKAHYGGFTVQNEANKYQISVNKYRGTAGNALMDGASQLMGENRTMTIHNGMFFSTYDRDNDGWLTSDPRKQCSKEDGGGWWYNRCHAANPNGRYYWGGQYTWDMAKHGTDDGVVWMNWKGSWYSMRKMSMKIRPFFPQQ
T2 sequence (P02679 27-433 limits assumed): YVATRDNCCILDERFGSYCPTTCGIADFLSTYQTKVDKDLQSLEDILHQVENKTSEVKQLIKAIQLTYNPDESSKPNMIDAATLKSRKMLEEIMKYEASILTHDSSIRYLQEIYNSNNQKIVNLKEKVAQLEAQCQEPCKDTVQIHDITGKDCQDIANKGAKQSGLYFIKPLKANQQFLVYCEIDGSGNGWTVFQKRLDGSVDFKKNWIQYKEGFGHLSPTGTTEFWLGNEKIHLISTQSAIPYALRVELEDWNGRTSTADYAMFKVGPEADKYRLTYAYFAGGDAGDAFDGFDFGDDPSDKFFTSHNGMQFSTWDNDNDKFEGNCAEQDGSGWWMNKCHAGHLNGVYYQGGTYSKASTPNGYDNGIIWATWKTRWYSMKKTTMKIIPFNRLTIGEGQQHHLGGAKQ
The series is described as follows: NMRD relaxivity in human fibrinogen/TBS solution. The series is classed as physicochemical. As to conditions: 30 μM human fibrinogen/TBS, 35 °C.

The test system of another series is arterial thrombosis. As to conditions: guinea pig; cited from earlier work.
The nature of series [3]: Variable temperature NMRD and O-17 NMR relaxation in TBS. Format: physicochemical.

Structures are written as SMILES. Where only a bound is given, the exact number is not on record here.

In the case of `CC(C)C[C@H](NC(=O)[C@@H]1CSSC[C@H](NC(=O)[C@@H]2CCCN2C(=O)[C@H](CC(C)C)NC(=O)[C@H](CNC(=O)C(CN(CCN(CC(=O)O)CC(=O)O)CC(=O)O)N(CC(=O)O)CC(=O)O)NC(=O)C(CN(CCN(CC(=O)O)CC(=O)O)CC(=O)O)N(CC(=O)O)CC(=O)O)C(=O)N[C@@H](CC(=O)O)C(=O)N[C@@H](Cc2ccc(O)cc2)C(=O)N[C@@H](Cc2ccc(O)cc2)C(=O)NCC(=O)N[C@@H]([C@@H](C)O)C(=O)N1)C(=O)N[C@@H](CC(=O)O)C(=O)NCc1ccc(CNC(=O)[C@H](CNC(=O)C(CN(CCN(CC(=O)O)CC(=O)O)CC(=O)O)N(CC(=O)O)CC(=O)O)NC(=O)C(CN(CCN(CC(=O)O)CC(=O)O)CC(=O)O)N(CC(=O)O)CC(=O)O)cc1` (some centres unmarked) [Compound 4], the Ki in series [1] is 12 µM. The “fold increase in metabolic stability” value in series [2] fell in the range of 6 to 7 fold. Moreover, the half-life at 100 µM in the series “in vitro” came to 1.09 h.

Regarding `CC(C)C[C@H](NC(=O)CN(CCNC(=O)C(CN(CCN(CC(=O)O)CC(=O)O)CC(=O)O)N(CC(=O)O)CC(=O)O)CCNC(=O)C(CN(CCN(CC(=O)O)CC(=O)O)CC(=O)O)N(CC(=O)O)CC(=O)O)C(=O)N1CCC[C@H]1C(=O)N[C@H]1CSSC[C@@H](C(=O)N[C@@H](Cc2ccc(-c3ccccc3)cc2)C(=O)N[C@@H](CC(=O)O)C(=O)NCc2cccc(CNC(=O)CN(CCNC(=O)C(CN(CCN(CC(=O)O)CC(=O)O)CC(=O)O)N(CC(=O)O)CC(=O)O)CCNC(=O)C(CN(CCN(CC(=O)O)CC(=O)O)CC(=O)O)N(CC(=O)O)CC(=O)O)c2)NC(=O)[C@H]([C@@H](C)O)NC(=O)CNC(=O)[C@H](Cc2ccc(O)cc2)NC(=O)[C@H](Cc2ccc(O)cc2)NC(=O)[C@H](CC(=O)O)NC1=O` (some centres unmarked) [Compound 5], in the series with gelled human fibrin (30 μM fibrin gel (FBN)), the “ΔEl^‡ (temperature dependence of τloc)” value is 7.17 ± 0.48 kcal/mol. In addition, in the series with gelled human fibrin (30 μM fibrin gel (FBN), 37 °C), the “τloc^37” value worked out at 720±20 ps. Besides, in the series with gelled human fibrin (30 μM fibrin gel (FBN), Lipari-Szabo model), the “τR^37 (global)” value was >20,000 (NA) ps. For the same compound, the “F^2” value in the series with gelled human fibrin (30 μM fibrin gel (FBN), dimensionless order parameter) came out at 0.08 ±0.02. For the same compound, the “fraction bound to fibrin” value on gelled human fibrin (50 μM 5 in 30 μM fibrin gel, based on the measured binding constant) came out at 81%. In addition, in the series with gelled human fibrin (bound to fibrin at 1.5T), the “relaxivity per Gd” value is 18 mM⁻¹ s⁻¹ and the relaxivity per molecule turned out to be 72 mM⁻¹ s⁻¹. In addition, the “global τR” value with gelled human fibrin (fibrin-bound, best fits) is recorded as over 20 ns. Further, the “binding to fibrinogen (from relaxivity enhancement)” value on human fibrinogen is “does not bind/binds weakly to fibrinogen”. The “efficacy in arterial thrombosis model” value in the series with arterial thrombosis is reported as “showed efficacy”. In series [3], the “ΔER^‡ (temperature dependence of τR)” value came to 5.95 ± 0.096 kcal/mol, the “ΔH^‡ (temperature dependence of τm)” value came to 10.9 ± 0.335 kcal/mol and the “Δ^2 ×10^−18” value is given as 10.2 ±0.5 s^2. In series [3] (37 °C), the “τm^37” value is 124±9 ns and the “τv^37” value stood at 18.0 ±1.7 ps. In series [3] (37 °C, isotropic model of rotation), the “τR^37” value turned out to be 389±4 ps. Moreover, in series [3] (dimensionless), the “F^2” value is listed as 1.

As a reminder, the Ki is the dissociation constant of the complex between target and ligand, obtained from inhibition or displacement. The term half-life denotes the time in which the quantity being followed falls by half. A higher half-life goes with slow decline.
